Laboratory results reported in PMC10909783.

Columns and labels:
Assay in all cases: BLI
[1] = molecular target: T1, MDA5 WT (dL2) del646-663 (Mus musculus) (UniProt Q8R5F7); settings: 3'-biotin, BLI and EMSA: 20 mM Hepes pH 7.4, 0.15 M KCl, 1 mM TCEP, EMSA 15 min at 4 C with 1 uM protein and 100 ng nucleic acid, BLI with 0.1 or 1 uM protein …
T1 sequence: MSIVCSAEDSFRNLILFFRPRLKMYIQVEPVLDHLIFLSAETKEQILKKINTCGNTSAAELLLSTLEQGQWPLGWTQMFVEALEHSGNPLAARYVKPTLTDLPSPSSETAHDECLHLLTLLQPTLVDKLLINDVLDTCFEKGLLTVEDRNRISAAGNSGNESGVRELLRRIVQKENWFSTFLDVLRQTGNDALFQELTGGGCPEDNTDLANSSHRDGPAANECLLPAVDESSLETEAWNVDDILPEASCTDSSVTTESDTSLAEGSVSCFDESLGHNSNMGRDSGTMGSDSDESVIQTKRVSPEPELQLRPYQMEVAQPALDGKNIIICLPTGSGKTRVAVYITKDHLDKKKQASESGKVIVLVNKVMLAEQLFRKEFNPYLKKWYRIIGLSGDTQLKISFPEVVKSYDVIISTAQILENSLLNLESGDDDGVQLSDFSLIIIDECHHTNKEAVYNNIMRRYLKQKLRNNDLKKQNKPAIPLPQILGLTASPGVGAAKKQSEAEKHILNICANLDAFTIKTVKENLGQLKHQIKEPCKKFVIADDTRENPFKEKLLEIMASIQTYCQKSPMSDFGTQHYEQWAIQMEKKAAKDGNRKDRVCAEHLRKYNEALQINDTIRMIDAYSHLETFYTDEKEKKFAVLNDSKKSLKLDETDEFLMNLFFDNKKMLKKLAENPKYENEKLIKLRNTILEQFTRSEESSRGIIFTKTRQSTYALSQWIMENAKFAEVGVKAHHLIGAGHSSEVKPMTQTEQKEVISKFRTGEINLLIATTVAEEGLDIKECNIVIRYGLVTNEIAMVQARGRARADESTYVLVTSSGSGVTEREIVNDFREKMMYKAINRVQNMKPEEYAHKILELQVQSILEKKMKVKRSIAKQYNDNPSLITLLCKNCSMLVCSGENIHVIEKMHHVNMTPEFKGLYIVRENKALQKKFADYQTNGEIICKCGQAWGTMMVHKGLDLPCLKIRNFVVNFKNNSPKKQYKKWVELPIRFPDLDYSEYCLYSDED

[2] = molecular target: MDA5 WT (dL2);LGP2 WT del646-663 (Mus musculus;Mus musculus) (UniProt Q8R5F7); settings: MDA5-LGP2 mixture, apparent Kd; 3'-biotin; BLI and EMSA: 20 mM Hepes pH 7.4, 0.15 M KCl, 1 mM TCEP; EMSA 15 min at 4 C with 1 uM protein and 100 ng nucleic …; BLI with 0.1 or 1 uM protein, temperature
[3] = test system: LGP2 K30G (Mus musculus); settings: no ATP stated; 3'-biotin; BLI and EMSA: 20 mM Hepes pH 7.4, 0.15 M KCl, 1 mM TCEP; EMSA 15 min at 4 C with 1 uM protein and 100 ng nucleic acid; BLI with 0.1 or 1 uM protein …
[4] = test system: LGP2 WT (Mus musculus); settings: 3'-biotin, BLI and EMSA: 20 mM Hepes pH 7.4, 0.15 M KCl, 1 mM TCEP, EMSA 15 min at 4 C with 1 uM protein and 100 ng nucleic acid, BLI with 0.1 or 1 uM protein …
[5] = molecular target: MDA5 WT (dL2);LGP2 K30G del646-663 (Mus musculus;Mus musculus) (UniProt Q8R5F7); settings: MDA5-LGP2 K30G mixture; 3'-biotin; BLI and EMSA: 20 mM Hepes pH 7.4, 0.15 M KCl, 1 mM TCEP; EMSA 15 min at 4 C with 1 uM protein and 100 ng nucleic acid; BLI with 0.1 or 1 uM protein …

| Substance | Kd ([1]; no ATP stated) | Kd [2] | Kd [3] | Kd [4] | Kd ([4]; no ATP stated) | Kd [5] | Kd [1] |
| --- | --- | --- | --- | --- | --- | --- | --- |
| 1-kb dsRNA, 3'-biotin | 1300 nM | 520 nM | 1300 nM | 48 nM | 70 nM |  |  |
| 40-nt ssRNA, 3'-biotin |  |  |  |  |  | 1840 nM | 2600 nM |
| 300-bp dsRNA, 3'-biotin |  |  |  |  |  |  | 1310 nM |
